Patent publication US20230203134A1 (published 2023)
Where two headings read alike, the source gives them in different places.

B1: monoclonal antibody 2-51 (antibody, V domains shown)
VH: QVQLVQSGAEVKKPGASVKVSCKVSGYTLIELSMHWVRQAPGKGLEWMGGFDPEDVETIYAQQFQGRVTMTEDTSTDTAYMELSSLRSEDTAVYYCATGWAYKSTWYFGYWGQGTLVTVSS
VL: QSALTQPPSASGSPGQSVTISCTGTSSDVGGYNYVSWYQQHPGKAPKLMIYEVSKRPSGVPDRFSGSKSGNTASLTVSGLQAEDEADYYCSSYAGSRMGFGGGTKLTVL
B2: monoclonal antibody 2-4 (antibody, V domains shown)
VH: QVQLVQSGAEVKKPGASVKVSCKASGYTFTGYYMHWVRQAPGQGLEWMGWINPNSGGTNYTQMFQGRVTMTRDTSISTAYMEVSRLRSDDTAVYYCARDRSWAVVYYYMDVWGKGTTVTVSS
VL: QSALTQPPSASGSPGQSVTISCTGTSSDVGGYNYVSWYQQHPGKAPKLMIYEVSKRPSGVPDRFSGSKSGNTASLTVSGLQAEDEADYYCSSYAGSNNLVFGGGTKLTVL
B3: monoclonal antibody 2-38 (antibody, V domains shown)
VH: EVQLVESGGGLVKPGGSLRLSCAASGFTFSSYSMNWVRQAPGKGLEWVSSISSSSSYIYYADSVKGRFTISRDNAKNSLYLQMNSLRAEDTAVYYCTRAGWELRLDAFDIWGQGTMVTVSS
VL: SSELTQDPAVSVALGQTVRITCQGDSLRSSYASWYQQKPGQAPILVIYDKNNRPSGIPDRFSGSSSGNTASLTITGAQAEDEADYYCNSRDSSGILFGGGTKLTVL
B4: monoclonal antibody 2-15 (antibody, V domains shown)
VH: QVQLVQSGAEVKKPGASVRVSCKASGYTFTGYYMHWVRQAPGQGLEWMGWINPISDGTNYAQKFQGWVTMTRDTSISTVYMELSRLRSDDTAVYYCARGGSRCSGGNCYGWAYDAFDIWGQGTMITVSS
VL: QSALTQPASVSGSPGQSITISCTGTSSDVGGYNFVSWYQQHPGKAPKLMIYDVSKRPSGVSNRFSGSKSGNTASLTISGLQAEDEADCYCSSYTSSSTFVFGTGTKVTVL

What was measured:
[1] = target: T1, SARS-CoV-2 S trimer (soluble spike ectodomain trimer) (SARS-CoV-2, UniProt P0DTC2 14-1213); assay: SPR
[2] = target: T1, SARS-CoV-2 S trimer (soluble spike …); assay: ELISA
[3] = target: T2, SARS-CoV-2 receptor binding domain (RBD) (SARS-CoV-2, UniProt P0DTC2 319-591); assay: SPR
[4] = target: T1, SARS-CoV-2 S trimer (soluble spike …); assay: SPR; remark: listed apart in the source
[5] = target: T1, SARS-CoV-2 S trimer (soluble spike …); assay: SPR; remark: listed apart in the source
[6] = target: T2, SARS-CoV-2 receptor binding domain (RBD); assay: ELISA

Binder | Kd [1] [nM] | EC50 [2] [µg/mL] | Kd [3] [nM] | Kd [4] [nM] | Kd [5] [nM] | EC50 [6] [µg/mL]
B1 | 77.1 | 0.017 |  |  |  | 
B2 |  | 0.018 | 34.2 | 8.7 | 41.2 | 0.021
B3 |  | 0.305 |  | 51.4 |  | 0.289
B4 |  | 0.006 |  | 5.7 |  | 0.008
